Experimental data: US20220033501A1 (SHANGHAI PHARMAEXPLORER, published 2022)

Tests used:
[1] = molecular target: T1, TIM-3 protein on human peripheral blood mononuclear lymphocytes (PBMC) (human, UniProt Q8TDQ0 22-301); test: cell-based or functional assay
T1 sequence: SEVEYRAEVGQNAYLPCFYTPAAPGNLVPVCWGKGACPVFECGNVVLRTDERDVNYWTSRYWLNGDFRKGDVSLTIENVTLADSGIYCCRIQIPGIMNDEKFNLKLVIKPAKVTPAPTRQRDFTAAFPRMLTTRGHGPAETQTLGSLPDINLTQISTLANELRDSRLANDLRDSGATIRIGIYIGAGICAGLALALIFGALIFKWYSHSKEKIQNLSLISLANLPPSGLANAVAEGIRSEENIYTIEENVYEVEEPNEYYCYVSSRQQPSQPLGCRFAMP

[2] = molecular target: T2, murine TIM-3 extracellular domain protein with hFc tag (mTIM-3-hFc) (mouse, UniProt Q8VIM0 29-191); test: ELISA, coated mouse TIM-3 ECD protein, 0 nM antibody
T2 construct: also called mouse TIM-3 extracellular domain protein; not shown: human IgG Fc fragment (hFc) of the pCpC vector
T2 chain: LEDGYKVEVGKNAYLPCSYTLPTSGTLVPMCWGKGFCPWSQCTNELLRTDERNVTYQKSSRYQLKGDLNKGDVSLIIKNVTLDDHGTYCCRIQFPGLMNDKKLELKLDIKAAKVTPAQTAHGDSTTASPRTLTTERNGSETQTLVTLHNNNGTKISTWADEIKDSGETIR

[3] = molecular target: T3, human TIM-3 extracellular domain protein with hFc tag (hTIM-3-hFc) (human, UniProt Q8TDQ0 22-200); test: ELISA, coated human TIM-3 ECD protein, 0.0067 nM antibody
T3 construct: not shown: human IgG Fc fragment (hFc) of the pCpC vector
T3 sequence: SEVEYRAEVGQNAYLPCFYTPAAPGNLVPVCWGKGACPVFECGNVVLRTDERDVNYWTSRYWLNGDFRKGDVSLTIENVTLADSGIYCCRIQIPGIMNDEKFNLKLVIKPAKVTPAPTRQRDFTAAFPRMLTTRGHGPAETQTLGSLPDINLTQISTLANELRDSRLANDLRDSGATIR

[4] = molecular target: T2, murine TIM-3 extracellular domain …; test: ELISA, coated mouse TIM-3 ECD protein, 0.0001 nM antibody
[5] = molecular target: T2, murine TIM-3 extracellular domain …; test: ELISA, coated mouse TIM-3 ECD protein, 6.6667 nM antibody
[6] = molecular target: T4, monkey TIM-3 extracellular domain protein with hFc tag (cTIM-3-hFc) (monkey); test: ELISA, coated monkey TIM-3 ECD protein, 66.667 nM antibody
T4 construct: not shown: human IgG Fc fragment (hFc) of the pCpC vector
T4 chain: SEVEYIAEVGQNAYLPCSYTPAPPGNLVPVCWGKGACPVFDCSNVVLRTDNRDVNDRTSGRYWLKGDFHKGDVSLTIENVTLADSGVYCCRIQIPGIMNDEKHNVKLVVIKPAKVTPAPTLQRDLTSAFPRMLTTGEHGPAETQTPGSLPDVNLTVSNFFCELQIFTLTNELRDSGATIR

[7] = molecular target: T5, monkey TIM-3 protein with hFc tag (cTIM-3-hFc protein) (monkey; human); test: ELISA, coated cTIM-3-hFc; antibody 0.6667 nM
T5 construct: Made in HEK293 cells; also called monkey TIM-3 extracellular domain protein; not shown: human IgG Fc fragment (hFc) of the pCpC vector
T5 chain: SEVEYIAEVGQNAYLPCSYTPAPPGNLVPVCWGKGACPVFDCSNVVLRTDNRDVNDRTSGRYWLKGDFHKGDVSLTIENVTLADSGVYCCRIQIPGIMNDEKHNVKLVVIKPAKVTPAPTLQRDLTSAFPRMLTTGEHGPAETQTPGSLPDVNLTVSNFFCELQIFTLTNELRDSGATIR
Source text: (§1) The amino acid sequence 22-200 of the extracellular domain of the human TIM-3 protein described in the step of Example 1 (as shown in SEQ ID NO. 71 in the sequence listing) was cloned into a pCpC vector having a human IgG Fc fragment (hFc), and transfected into HEK293 cells. The cell culture medium was collected, and purified to obtain the human TIM-3 protein with hFc tag (herein referred to as hTIM-3-hFc protein). The amino acid sequence 22-201 of the extracellular domain of the monkey TIM-3 protein (as shown in SEQ ID NO. 72 in the sequence listing) was cloned into a pCpC vector having a human IgG Fc fragment (hFc), and transfected into HEK293 cells. The cell culture medium was collected, and purified to obtain the monkey TIM-3 protein with hFc tag (herein referred to as cTIM-3-hFc protein). […] The cell culture medium was collected, and purified to obtain the murine TIM-3 protein with hFc tag (herein referred to as mTIM-3-hFc protein). Purified human, monkey, and mouse TIM-3 extracellular domain proteins (hTIM-3-hFc, cTIM-3-hFc, and mTIM-3-hFc) were diluted with PBS to a final concentration of 1.0 μg/ml and then added to a 96-well ELISA plate with 100 μl per well. The plate was sealed with plastic film and incubated overnight at 4° C. The plate was washed 4 times with the plate washing solution (PBS+0.01% Tween20) on the next day, and added with the blocking solution (PBS+0.01% Tween20+1% BSA) and sealed at room temperature for 1-2 hours. The blocking solution was poured out. 50-100 μl of the antibody sample to be tested was added to each well. The plate was incubated at 37° C. for 1-2 hours, and washed 2-3 times with plate washing solution (PBS+0. 01% Tween20). HRP (horseradish peroxidase) labeled secondary antibody was added. The plate was incubated at 37° C. for 1-2 hours, and washed 2-3 times with plate washing solution (PBS+0. 01% Tween20). […] of TMB substrate was added to each well. After incubated at room temperature for 15-30 minutes, the plate was added with […] stop solution (1.0N HCl) to each well. An ELISA plate reader (TiterMax 384plus, Molecular Device) was used to read the A450 nm value.

[8] = molecular target: T6, murine TIM-3 protein with hFc tag (mTIM-3-hFc protein) (mouse; human, UniProt Q8VIM0 29-191); test: ELISA, coated mTIM-3-hFc; antibody 0.6667 nM
T6 construct: Made in HEK293 cells; also called mouse TIM-3 extracellular domain protein; not shown: human IgG Fc fragment (hFc) of the pCpC vector
T6 chain: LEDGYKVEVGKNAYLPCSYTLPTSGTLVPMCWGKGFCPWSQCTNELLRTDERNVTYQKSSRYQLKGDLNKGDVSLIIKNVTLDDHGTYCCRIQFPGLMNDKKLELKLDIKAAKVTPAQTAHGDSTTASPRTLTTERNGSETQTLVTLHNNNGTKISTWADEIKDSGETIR
Source text: as §1

[9] = molecular target: T5, monkey TIM-3 protein with hFc tag …; test: ELISA, coated cTIM-3-hFc; antibody 0 nM (blank)
Source text: as §1

B1: 57F4E5 fully human TIM-3 antibody (human IgG4, kappa) (antibody, V domains shown)
VH: EVQLVESGGGLVQPGGSLRLSCAASGFTFSSYWMSWVRQAPGKGLEWVANIKQDGSEKYYVDSVKGRFTISRDSAKNSLYLQMNSLRAEDTAMYFCARDSNFFDYWGQGTLVTVSS
VL: ETVMTQSPATLSVSPGERATLSCRASQSVSSNLAWYQRKPGQAPRLLIYFSSTRATGIPARFSGSGSGTEFTLTISSLQSEDFAVYYCQQYNNWPLTFGGGTKVEIK
[1]
  IFN-γ production (donor X); antibody 0.1 µg/ml, N = 1: 2800 pg/mL
  IFN-γ production (donor X); antibody 0.1 µg/ml, N = 2: 2980 pg/mL
  IFN-γ production (donor X); antibody 1 µg/ml, N = 1: 3550 pg/mL
  IFN-γ production (donor X); antibody 1 µg/ml, N = 2: 3150 pg/mL
  IFN-γ production (donor X); antibody 10 µg/ml, N = 1: 3080 pg/mL
  IFN-γ production (donor X); antibody 10 µg/ml, N = 2: 3340 pg/mL
  IFN-γ production (donor X); antibody '0' (4th head as printed), N = 1: 2870 pg/mL
  IFN-γ production (donor X); antibody '0' (4th head as printed), N = 2: 2740 pg/mL
  IFN-γ production (donor X); antibody '0' (5th head as printed), N = 1: 2160 pg/mL
  IFN-γ production (donor X); antibody '0' (5th head as printed), N = 2: 2400 pg/mL
[2]
  OD450: 0.24
[3]
  OD450: 0.23
[4]
  OD450: 0.24
[5]
  OD450: 0.54
[6]
  OD450: 3.42

B2: 57F4E5 (TIM-3 antibody purified from hybridoma, chimeric antibody of Example 2) (antibody, V domains shown)
VH: EVQLVESGGGLVQPGGSLRLSCAASGFTFSSYWMSWVRQAPGKGLEWVANIKQDGSEKYYVDSVKGRFTISRDSAKNSLYLQMNSLRAEDTAMYFCARDSNFFDYWGQGTLVTVSS
VL: ETVMTQSPATLSVSPGERATLSCRASQSVSSNLAWYQRKPGQAPRLLIYFSSTRATGIPARFSGSGSGTEFTLTISSLQSEDFAVYYCQQYNNWPLTFGGGTKVEIK
notes: From hybridoma of Harbour H2L2 transgenic mice: human variable regions, rat constant regions
[7]
  OD450: 3.45
[8]
  OD450: 0.64
[9]
  OD450: 0.56

B3: 39E5H1 (TIM-3 antibody purified from hybridoma, chimeric antibody of Example 2) (antibody, V domains shown)
VH: EVQLVESGGGLVQPGGSLRLSCAASGFTFSSYWMSWVRQAPGKGLEWVANIKRGGSERYYVDSVKGRFTISGDNAKNSVYLQMNSLRAEDTAVYYCARGSNWFDPWGQGTLVTVSS
VL: ETVMTQSPAILSVSPGERATLSCRASQSVYSNLAWYQQKLGQAPRLLIYDASTRATGIPARFSGSGSGTEFTLTISSLQSEDFAVYYCQQYNNWPITFGQGTRLEIK
notes: as for B2
[7]
  OD450: 3.41
[8]
  OD450: 0.66
[9]
  OD450: 0.59

B4: 18D2H2 (TIM-3 antibody purified from hybridoma, chimeric antibody of Example 2) (antibody, V domains shown)
VH: EVQLVESGGDLVQPGGSLRLSCAASGFTFSTYWMTWVRQAPGRGLEWVANIKQDGSAKYYVDSVKGRFTLSRDDAKNSLYLQMNSLRAEDTAVYYCARGSNWFDYWGQGTLVTVSS
VL: ETVMTQSPATLSVSPGERATLSCRANQNVYSNLAWYQQKPGQAPRLLIYDASTRATGFPARFSGSGSGTEFTLTISSLQSEDFAVYYCQQYNNWPLTFGGGTKVEIK
notes: as for B2
[7]
  OD450: 1.89
[8]
  OD450: 0.66
[9]
  OD450: 0.55

B5: 134H3G6 fully human TIM-3 antibody (human IgG4, kappa) (antibody, V domains shown)
VH: EVQLVESGGGLVQPGGSLRLSCAASGFTFSNSWMTWVRQAPGKGLEWVANIKQAGTEKYYVDSVKGRFTISRDNAKNSLYLQMNSLRAEDTAVYYCNSGSNYFDYWGQGTLVTVSS
VL: EIVMTQSPATLSVSPGERATLSCRARQNFYSNLAWYQQKPGQAPRLLIYGASTRATGIPARFSGSGSGTEFTLTISSLQSEDFAVYYCQQYNNWPLTFGGGTKVEIK
[1]
  IFN-γ production (donor X); antibody 0.1 µg/ml, N = 1: 2610 pg/mL
  IFN-γ production (donor X); antibody 0.1 µg/ml, N = 2: 2720 pg/mL
  IFN-γ production (donor X); antibody 1 µg/ml, N = 1: 3250 pg/mL
  IFN-γ production (donor X); antibody 1 µg/ml, N = 2: 2890 pg/mL
  IFN-γ production (donor X); antibody 10 µg/ml, N = 1: 3460 pg/mL
  IFN-γ production (donor X); antibody 10 µg/ml, N = 2: 3480 pg/mL
  IFN-γ production (donor X); antibody '0' (4th head as printed), N = 1: 2390 pg/mL
  IFN-γ production (donor X); antibody '0' (4th head as printed), N = 2: 2430 pg/mL
  IFN-γ production (donor X); antibody '0' (5th head as printed), N = 1: 2510 pg/mL
  IFN-γ production (donor X); antibody '0' (5th head as printed), N = 2: 2370 pg/mL
[2]
  OD450: 0.22
[3]
  OD450: 0.27
[4]
  OD450: 0.22
[5]
  OD450: 0.36
[6]
  OD450: 3.11

B6: 134H3G6 (TIM-3 antibody purified from hybridoma, chimeric antibody of Example 2) (antibody, V domains shown)
VH: EVQLVESGGGLVQPGGSLRLSCAASGFTFSNSWMTWVRQAPGKGLEWVANIKQAGTEKYYVDSVKGRFTISRDNAKNSLYLQMNSLRAEDTAVYYCNSGSNYFDYWGQGTLVTVSS
VL: EIVMTQSPATLSVSPGERATLSCRARQNFYSNLAWYQQKPGQAPRLLIYGASTRATGIPARFSGSGSGTEFTLTISSLQSEDFAVYYCQQYNNWPLTFGGGTKVEIK
notes: as for B2
[7]
  OD450: 1.22
[8]
  OD450: 0.66
[9]
  OD450: 0.55

B7: 34B6D8 (TIM-3 antibody purified from hybridoma, chimeric antibody of Example 2) (antibody, V domains shown)
VH: EVQLVESGGGLVQPGGSLRLSCAASGFTFSTYWMTWVRQAPGKRLEWVANIKQGGGDKYYVDSVKGRFTISTDNAKNSLYLQMNSLRAEDTAVYYCARGSNWFDPWGQGTLVTVSS
VL: EIVMTQSPATLSMSPGERATLSCRASQSVYDNLAWYQQKPGQAPRLLIYGASTRATGIPARFSGSGSGTEFTLTISSLQSEDFALYYCQQYTHWPITFGQGTRLEIK
notes: as for B2
[7]
  OD450: 3.44
[8]
  OD450: 0.65
[9]
  OD450: 0.58

B8: 215A8F2 (TIM-3 antibody purified from hybridoma, chimeric antibody of Example 2) (antibody, V domains shown)
VH: QVQLQQWGAGLLKPSETLSLTCTVYGGSFSGYYWNWIRQPPGKGLEWLGEINHSGSTNYNPSLKRRVTISVDTSKNQFSLKLSSVTAADTAVYYCARVYYYGPFDFWGQGTLVTVSS
VL: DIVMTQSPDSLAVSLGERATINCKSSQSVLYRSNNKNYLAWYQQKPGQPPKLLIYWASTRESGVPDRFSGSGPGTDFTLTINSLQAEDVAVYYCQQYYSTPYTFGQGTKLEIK
notes: as for B2
[7]
  OD450: 3.26
[8]
  OD450: 0.65
[9]
  OD450: 0.57

B9: 7A4F10 (TIM-3 antibody purified from hybridoma, chimeric antibody of Example 2) (antibody, V domains shown)
VH: EVQLLESGGGLVQPGGSLRLSCAASGFTFRTHLISWVRQAPGKGLEWVAAITGSGGSTYYADSVKGRFIISRDNSKNTLFLQMNSLRAEDTAVYYCAKDGGSGSYDDFWGQGTLVTVSS
VL: ETVLTQSPVTLSLSPGERATLSCRASQSVGSYLAWYQQKPGQAPRLLIYDASNRATGIPARFSGSGSGTDFTLTISSLEPEDFAVYYCQQRSNWPPTFGQGTKVEIK
notes: as for B2
[7]
  OD450: 1.35
[8]
  OD450: 0.67
[9]
  OD450: 0.54
